Substitutions are numbered along the chain they refer to. Values joined by “and” are separate entries in the source; they are usually repeats but may differ in a detail not shown here. Equal values may be shown once.
Assays:
[1] = target: T1, biotinylated native human ApoC3 (human, UniProt P02656 21-99, biotinylated (site not stated)); assay: SPR, scFv-Fc over biotinylated ApoC3 on SA chip, pH 5.5
T1 construct: also called biotinylated human ApoC3

[2] = target: T1, biotinylated native human ApoC3; assay: SPR, scFv-Fc over biotinylated ApoC3 on SA chip
[3] = target: T1, biotinylated native human ApoC3; assay: SPR, scFv-Fc over biotinylated ApoC3 on SA chip, pH 7.4
[4] = target: T1, biotinylated native human ApoC3; assay: SPR, IgG1 over biotinylated ApoC3 on SA chip, pH 7.4
Procedure: (§1) Biotinylated native human ApoC3 was captured on a streptavidin coated SPR chip (GE Healthcare, cat. nr. BR100032) at pH 7.4, in accordance with the method provided by Biacore, by injection of 20 μl 10 μg/ml biotinylated native human ApoC3 reaching the surface density of approximately 500 RU. 60 μL of test antibody in 1-50 nM range diluted in HBS-EP buffer (GE, cat # BR-1008-26; 0.010 M HEPES, 0.150M NaCl, 3 mM EDTA, 0.05% (v/v) surfactant P20, pH 7.4) was injected and passed through the flow cells at a flow rate of 30 μl/min, followed by an off-rate wash at pH7.4 for 5 min. After the dissociation, the flow cell surfaces were regenerated by injecting 10 μl of 10 mM NaOH/1 M NaCl and 10 μl of 10 mM glycine at pH1.5. The assay was repeated at pH5.5 using the same general protocol, where the running and sample dilution buffer was replaced by a HBS-EP buffer supplemented with citrate buffer to 10 mM final concentration and pH adjusted to 5.5.
(§2) The resulting sensorgrams were analyzed using the BIAevaluation 4.1 software using Langmuir 1:1 binding model to derive binding kinetics. Data was zero adjusted and the reference cell sensorgrams were subtracted. Sensorgrams were double referenced to no-analyte blank assay. Fitted parameters were considered not applicable if off-rate values were below the equipment's detection limit of kd: 1×10⁻⁶ 1/s.

[5] = target: T1, biotinylated native human ApoC3; assay: SPR, IgG1 over biotinylated ApoC3 on SA chip
Procedure: as §1, §2

[6] = target: T1, biotinylated native human ApoC3; assay: SPR, IgG1 over biotinylated ApoC3 on SA chip, pH 5.5; pH 5.5
native human ApoC3 [7] = target: T2, native human ApoC3 (human, UniProt P02656 21-99); assay: SPR, IgG1 over ApoC3 on CM5 chip, pH 5.5
T2 construct: also called nhuApoC3; native huApoC3
T2 sequence (P02656 21-99): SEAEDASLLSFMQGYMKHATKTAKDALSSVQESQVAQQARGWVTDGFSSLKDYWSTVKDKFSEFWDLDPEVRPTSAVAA
Procedure: (§3) Based on the results in Example 1, test scFv-Fc antibodies were generated as human IgG₁ antibodies. An SPR-based assay was employed, in which human ApoC3 protein was immobilized on a CM5 chip, and the binding kinetics of test antibodies to the coated chip were measured at both pH 7.4 and pH 5.5. Briefly, a solution of 50 μg/ml of native human ApoC3 in 10 mM acetate buffer at pH 4.5 was prepared and injected until the surface density reached approximately 500 RU. 60 μl of each test antibody was diluted in HBS-EP buffer (GE, cat. nr. BR-1008-26; 0.010 M HEPES, 0.150M NaCl, 3 mM EDTA, 0.05% (v/v) surfactant P20, pH 7.4), and was injected at a concentration as described in Table 9. The test antibodies were passed through the flow cells at a flow rate of 30 μl/min, followed by an off-rate wash at pH 7.4 or pH 5.5 for 5 min. The resulting sensorgrams were analyzed using the BIAevaluation 4.1 software applying the Langmuir 1:1 binding model to derive binding kinetics. Data was zero adjusted and the reference cell sensorgrams were subtracted.

[8] = target: T1, biotinylated native human ApoC3; assay: SPR, IgG1 over biotinylated ApoC3 on SA chip, pH 5.5
Procedure: as §1, §2

[9] = target: T1, biotinylated native human ApoC3; assay: SPR, IgG1 over biotinylated ApoC3 on SA chip, pH 7.4; pH 7.4; native ApoC3 on CM5 chip
native human ApoC3 [10] = target: T2, native human ApoC3; assay: SPR, IgG1 over ApoC3 on CM5 chip, pH 7.4
Procedure: as §3

native human ApoC3 [11] = target: T2, native human ApoC3; assay: SPR, IgG1 over ApoC3 on CM5 chip, pH 7.4; pH 7.4; IgG1 over native ApoC3 on CM5 chip
Procedure: as §3

native human ApoC3 [12] = target: T2, native human ApoC3; assay: SPR, ApoC3 over captured IgG1, pH 7.4
Procedure: (§4) An inverted SPR assay was designed in which a test antibody was captured on an SPR chip, human ApoC3 protein was injected, and binding of ApoC3 to the antibody was measured. […] The immobilization was performed in accordance with the method provided by Biacore/GE using the NHS/EDC kit (Biacore AB, Cat.nr. BR-1000-50): after activation of the chip, a solution of 30 μg/ml of anti-human Fcγ antibody in 10 mM acetate buffer with pH of 5.0 was prepared and injected until the surface density reached approximately 10000 RU. The analytical cycle comprised the following steps:
(§5) The resulting sensorgrams were analyzed using the BIAevaluation 4.1 software using Langmuir 1:1 binding model to derive binding kinetics. Data was zero adjusted, the reference cell sensorgrams were subtracted and the no analyte blank assay was used for double referencing the sensorgrams corresponding to the analyte injections. The dissociation and association phase sensorgrams were fitted separately for the 4 different concentration curves. Sensorgrams were excluded from the fitting if maximum RU values reached were below the detection limit of the equipment (<5 RU), Biacore 3000 (Biacore AB).

[13] = target: T1, biotinylated native human ApoC3; assay: SPR, IgG1 over biotinylated ApoC3 on SA chip, pH 7.4; pH 7.4
Procedure: as §1, §2

native human ApoC3 [14] = target: T2, native human ApoC3; assay: SPR, ApoC3 over captured IgG1, pH 7.4; pH 7.4; ApoC3 600-50 nM over immobilized antibody
Procedure: as §4, §5

T1 sequence (P02656 21-99): as above

B1: 5E5WT scFv-Fc (scFv, part only; not given: Linker, domain order, Fc, V domains shown, not shown: another chain or arm of the molecule; a dimerising Fc or GST; small tags and cut ends)
VH: QLQLVESGGGLVQPGGSLRLSCAASGFTFGTYSMRWVRQVPRKALEWVSSISTDGGGTAYRDSVKGRFTISRDNAKNTLYLQMNNLKPEDTAIYYCVIAGYSDWGQGTQVTVSS
VL: ATMLTQSPGSLSVVPGESASISCKTSQGLVHSDGKTYFYWFLQKPGQSPQQLIYQVSNRASGVPDRFTGSGSGTDFTLKISGVKAEDAGVYYCAQGTYYPHTFGSGTRLEIK
With B1 the Kd [1] was 0.06 nM, the koff [1] was 2.53e-05 s⁻¹ and the kon [1] was 393000 M⁻¹ s⁻¹. For the same binder, the KD pH 5.5/KD pH 7.4 [2] was 3, the Kd [3] was 0.02 nM and the koff [3] was 1.75e-05 s⁻¹. For the same binder, the kon [3] was 823000 M⁻¹ s⁻¹.

B2: 5E5VH5_VLWT scFv-Fc (scFv, part only; not given: Linker, domain order, Fc, V domains shown, not shown: another chain or arm of the molecule; a dimerising Fc or GST; small tags and cut ends)
VH: B1 VH with S52H
VL: B1 VL
B2 gave a koff [1] of 0.0016 s⁻¹, a kon [1] of 147000 M⁻¹ s⁻¹ and a KD pH 5.5/KD pH 7.4 [2] of 18.5. The Kd [3] was 0.59 nM, the koff [3] was 0.000105 s⁻¹ and the kon [3] was 178000 M⁻¹ s⁻¹.

B3: 5E5VH12_VLWT scFv-Fc (scFv, part only; not given: Linker, domain order, Fc, V domains shown, not shown: another chain or arm of the molecule; a dimerising Fc or GST; small tags and cut ends)
VH: B1 VH with A99H
VL: B1 VL
B3 was tested, and the Kd [1] was 16 nM, the koff [1] was 0.00206 s⁻¹ and the kon [1] was 129000 M⁻¹ s⁻¹. For the same binder, the KD pH 5.5/KD pH 7.4 [2] was 31.4, the Kd [3] was 0.51 nM and the koff [3] was 0.000157 s⁻¹. For the same binder, the kon [3] was 308000 M⁻¹ s⁻¹.

B4: 5E5VHWT_VL8 scFv-Fc (scFv, part only; not given: Linker, domain order, Fc, V domains shown, not shown: another chain or arm of the molecule; a dimerising Fc or GST; small tags and cut ends)
VH: B1 VH
VL: B1 VL with Q95H
B4 showed a koff [1] of 0.00116 s⁻¹, a kon [1] of 269000 M⁻¹ s⁻¹ and a KD pH 5.5/KD pH 7.4 [2] of 7.4. For the same binder, the Kd [3] was 0.58 nM, the koff [3] was 0.000221 s⁻¹ and the kon [3] was 381000 M⁻¹ s⁻¹.

B5: 5E5WT human IgG1 (antibody, V domains shown)
VH: B1 VH
VL: B1 VL
For B5, the Ka [4] was 1.95e+10 M⁻¹, the Kd [4] was 0.05 nM and the koff [4] was 1.79e-05 s⁻¹. The “KD pH5.5/KD pH7.4” value [5] was 0.97, the Ka [6] was 2.01e+10 M⁻¹ and the koff (native human ApoC3 [7]) was 1.7e-05 s⁻¹. For the same binder, the kon (native human ApoC3 [7]) was 340000 M⁻¹ s⁻¹, the Kd [8] was 0.05 nM and the koff [8] was 1.7e-05 s⁻¹. For the same binder, the kon [8] was 340000 M⁻¹ s⁻¹, the kon [9] was 350000 M⁻¹ s⁻¹ and the koff (native human ApoC3 [10]) was 1.79e-05 s⁻¹. For the same binder, the kon (native human ApoC3 [10]) was 350000 M⁻¹ s⁻¹.

B6: 5E5VH5VH12_VL8 human IgG1 (antibody, V domains shown)
VH: B1 VH with S52H, A99H
VL: B1 VL with Q95H
With B6 the koff (native human ApoC3 [11]) was 0.0028 s⁻¹ and the kon (native human ApoC3 [11]) was 125000 M⁻¹ s⁻¹.

B7: 5E5VH5_VL8 human IgG1 (antibody, V domains shown)
VH: B1 VH with S52H
VL: B1 VL with Q95H
notes: Tested as human IgG1; the tested lot is not tied to them in words
In the case of B7, the Ka (native human ApoC3 [12]) is reported as 3.35e+06 M⁻¹, the koff (native human ApoC3 [12]) is reported as 0.0127 s⁻¹ and the kon (native human ApoC3 [12]) is reported as 42700 M⁻¹ s⁻¹. For the same binder, the Ka [4] was 1.03e+09 M⁻¹, the Kd [4] was 0.98 nM and the koff [4] was 0.000173 s⁻¹. For the same binder, the kon [4] was 177000 M⁻¹ s⁻¹, the “KD pH5.5/KD pH7.4” value [5] was 11.7 and the koff (native human ApoC3 [7]) was 0.00242 s⁻¹. It also gave a kon (native human ApoC3 [7]) of 211000 M⁻¹ s⁻¹, a Ka [8] of 8.74e+07 M⁻¹ and a koff [8] of 0.00242 s⁻¹. The kon [8] was 211000 M⁻¹ s⁻¹, the koff (native human ApoC3 [10]) was 0.000173 s⁻¹ and the kon (native human ApoC3 [10]) was 177000 M⁻¹ s⁻¹.

B8: 5E5VH12_VLWT human IgG1 (antibody, V domains shown)
VH: B1 VH with A99H
VL: B1 VL
B8 was tested, and the Kd [4] was 0.0171 nM and 0.02 nM, the koff [4] was 1.12e-05 s⁻¹ and the kon [4] was 656000 M⁻¹ s⁻¹. For the same binder, the “KD pH5.5/KD pH7.4” value [5] was 27.6, the koff (native human ApoC3 [7]) was 0.000374 s⁻¹ and the kon (native human ApoC3 [7]) was 366000 M⁻¹ s⁻¹. The Ka [8] was 2.12e+09 M⁻¹, the Kd [8] was 0.472 nM and 0.47 nM and the koff [8] was 0.000143 s⁻¹. The kon [8] was 302000 M⁻¹ s⁻¹, the Ka [13] was 5.84e+10 M⁻¹ and the koff (native human ApoC3 [10]) was 1.38e-05 s⁻¹. It also gave a kon (native human ApoC3 [10]) of 393000 M⁻¹ s⁻¹.

B9: mAb13 (antibody, IgG1, V domains shown)
VH: QLLESGGGLVQPGGSLRLSCAASGFTFSTYSMRWVRQVPGKGLEWVSSIHTEGGGTAYRDSVKGRFTISRDNSKNTLYLQMNSLRAEDTAVYYCVIAGYSDWGQGTLVTVSS
VL: DIVMTQSPLSLPVTPGEPASISCKTSQGLVHSDGKTYFYWYLQKPGQSPQLLIYQVSNRASGVPDRFSGSGSGTDFTLKISRVEAEDVGVYYCAHGTYYPHTFGQGTRLEIK
notes: Produced as full length IgG1 (kappa) in ExpiCHO-S cells; CDR graft into the closest human germline frameworks; also called humanized anti-ApoC3 antibody mAb13; variant 13
For B9, the Ka (native human ApoC3 [14]) was 998000 M⁻¹, the koff (native human ApoC3 [14]) was 0.037 s⁻¹ and the kon (native human ApoC3 [14]) was 37000 M⁻¹ s⁻¹. For the same binder, the Ka [4] was 2.38e+08 M⁻¹, the koff [4] was 0.000461 s⁻¹ and the kon [4] was 110000 M⁻¹ s⁻¹. For the same binder, the “KD pH5.5/KD pH7.4” value [5] was 1.33, the Ka [8] was 1.8e+08 M⁻¹ and the koff [8] was 0.00267 s⁻¹. The kon [8] was 479000 M⁻¹ s⁻¹.

B10: mAb14 (antibody, IgG1, V domains shown)
VH: B9 VH with S28G
VL: B9 VL
notes: Produced as full length IgG1 (kappa) in ExpiCHO-S cells; CDR graft into the closest human germline frameworks; also called humanized anti-ApoC3 antibody mAb14; variant 14
With B10 the Ka (native human ApoC3 [14]) was 567000 M⁻¹, the koff (native human ApoC3 [14]) was 0.0458 s⁻¹ and the kon (native human ApoC3 [14]) was 26000 M⁻¹ s⁻¹. For the same binder, the Ka [4] was 3.38e+08 M⁻¹, the koff [4] was 0.000427 s⁻¹ and the kon [4] was 144000 M⁻¹ s⁻¹. The “KD pH5.5/KD pH7.4” value [5] was 7.2, the Ka [8] was 4.7e+07 M⁻¹ and the koff [8] was 0.00788 s⁻¹. The kon [8] was 370000 M⁻¹ s⁻¹.

From patent publication US20200239555A1 (STATEN BIOTECHNOLOGY B V, published 2020)
